Experimental data as given in paper doi:10.1101/116178.

Target: RFP-p62 (UniProt Q13501)
Test: co-IP

**Q.** How did the fold binding against cleavable mHTT turn out when “mHTT aa1-1212 138Q-C6R (domain or fragment)” was run?
**A.** Its fold binding against cleavable mHTT is 2 fold.
